In US20130172533A1 (INDUSTRIAL TECHNOLOGY RESEARCH INSTITUTE, published 2013) one finds Kd data, which are given here for two molecules.

For this test, the target named is T1, human CD34 surface antigen on KG1a cells (human, UniProt P28906 32-385).
T1 construct: whole, on cells; The target was always presented on KG1a cells; No recombinant CD34 was used; also called surface antigen CD34; CD34 antigen
T1 sequence (looked up): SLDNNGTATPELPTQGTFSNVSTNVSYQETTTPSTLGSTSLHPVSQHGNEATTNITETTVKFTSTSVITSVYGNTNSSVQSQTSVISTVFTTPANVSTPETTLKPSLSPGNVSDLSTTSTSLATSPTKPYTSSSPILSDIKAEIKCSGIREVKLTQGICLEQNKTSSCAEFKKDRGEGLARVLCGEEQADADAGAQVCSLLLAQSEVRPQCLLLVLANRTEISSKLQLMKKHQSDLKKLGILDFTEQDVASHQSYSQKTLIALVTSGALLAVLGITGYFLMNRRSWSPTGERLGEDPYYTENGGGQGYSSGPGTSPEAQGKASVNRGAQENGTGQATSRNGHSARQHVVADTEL
In words: flow cytometry, antibody titration on CD34+ KG1a cells. As for the experimental part: KG1a cells expressing the surface antigen CD34 were used for determining the antibody binding affinity. The antibody in aliquots were individually added into KG1a cells (about 1×10⁶ cells) and reacted at 4° C. for 1 hour. The cells were washed with the FACS buffer (DPBS buffer with 2% fetus bovine serum) three times and then treated with the goat anti-mouse IgG (H+L) Alexa Fluor 488 responsive to mMy10 IgG and the goat anti-human IgG (H+L) Alexa Fluor 647 responsive to hMy10 IgG at 4° C. for 1 hour. The cells were further washed with the FACS buffer and analyzed under the FACSCalibur flow cytometer.
For determining the binding affinity of hMy10 IgG and mMy10 IgG to the surface antigen CD34 of human stem cells, a KG1a cell line was used as the cell expressing the surface antigen CD34.
A general note: A flow cytometer gives signals particle by particle.

Regarding “anti-My10 murine monoclonal antibody (mMy10 IgG)”, the Kd (usually a measure of binding affinity in units of concentration) stood at 6.7 nM.

B1: humanized My10 IgG (hMy10 IgG) (antibody, V domains shown)
VH: EVQLVESGGGLVQPGGSLRLSCAVSGFSLTSHGVHWVRQAPGKGLEWLGVIWGAGRTDYNAAFISRLSISRDISKSQVYLQMNSLRAEDTAVYYCARNRYESYFDYWGQGTLVTVSS
VL: DIQMTQSPSSLSASVGDRVTITCRSSQNLVHSNGNTYLHWYQQKPGKAPKLLIYKVSNRFSGVPDRFSGSGSGTEFTLTISSLQPEDFATYYCSQSTHVPLTFGQGTKVEIKR
notes: also called humanized My10 (hMy10) IgG1; humanized anti-human CD34 monoclonal antibody
On to B1, for which the equilibrium dissociation constant (Kd) turned out to be 6.9 nM.
